Reference: publication PMC9427763, “Structure and dynamics of Toll immunoreceptor activation in the mosquito Aedes aegypti” (Nature Communications, 2022)
Values joined by “and” are separate entries in the source; they are usually repeats but may differ in a detail not shown here. Equal values may be shown once.

T1: Aedes aegypti Spaetzle1C cystine-knot domain (residues 219-320), disulphide-linked dimer (Aedes aegypti, intermolecular disulphide bonds between Cys-94 and between Cys-59 of the two chains)
T1 chain: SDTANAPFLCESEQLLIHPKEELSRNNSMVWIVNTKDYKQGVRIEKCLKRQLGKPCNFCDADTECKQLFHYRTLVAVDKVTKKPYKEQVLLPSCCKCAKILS

T2: Drosophila melanogaster Toll (Toll1) ectodomain (Drosophila melanogaster, UniProt P08953 28-807)
T2 construct: Toll receptor 1, Drosophila melanogaster, purified ectodomain; also called DmToll1; DmToll
T2 sequence (looked up): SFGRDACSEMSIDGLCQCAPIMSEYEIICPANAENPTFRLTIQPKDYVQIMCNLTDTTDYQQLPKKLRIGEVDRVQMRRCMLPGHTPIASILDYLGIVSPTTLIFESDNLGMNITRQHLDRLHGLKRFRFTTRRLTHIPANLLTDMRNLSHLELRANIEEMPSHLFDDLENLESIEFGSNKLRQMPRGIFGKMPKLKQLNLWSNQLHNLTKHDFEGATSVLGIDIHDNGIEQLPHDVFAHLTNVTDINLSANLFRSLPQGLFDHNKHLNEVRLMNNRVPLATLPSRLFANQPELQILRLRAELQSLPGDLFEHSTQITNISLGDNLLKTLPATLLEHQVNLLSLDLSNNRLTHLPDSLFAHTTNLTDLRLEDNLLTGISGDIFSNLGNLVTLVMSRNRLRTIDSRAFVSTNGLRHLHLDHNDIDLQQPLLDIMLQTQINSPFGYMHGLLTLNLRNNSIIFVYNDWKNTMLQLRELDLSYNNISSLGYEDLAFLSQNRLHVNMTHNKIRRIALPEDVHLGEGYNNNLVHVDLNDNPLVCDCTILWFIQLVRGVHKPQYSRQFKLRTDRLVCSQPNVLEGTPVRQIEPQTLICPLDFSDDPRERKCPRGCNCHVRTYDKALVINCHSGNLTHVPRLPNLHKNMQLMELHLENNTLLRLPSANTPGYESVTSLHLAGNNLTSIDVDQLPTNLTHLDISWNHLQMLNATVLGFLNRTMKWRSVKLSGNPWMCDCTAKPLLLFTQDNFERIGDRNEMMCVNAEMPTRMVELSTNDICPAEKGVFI


How the values were obtained:
[1] = molecular target: Aedes aegypti Spaetzle1C cystine-knot domain (residues 219-320), disulphide-linked dimer (Aedes aegypti); test: SEC-MALS; 50 μM Toll5A alone or saturated with Spz1C loaded on Superose 6; 50 mM Tris-HCl pH 7.5, 50 mM NaCl
[2] = molecular target: Aedes aegypti Toll5A ectodomain (residues 1-789) (Aedes aegypti); test: as above
[3] = molecular target: Aedes aegypti Spaetzle1C cystine-knot domain (residues 219-320), disulphide-linked dimer (Aedes aegypti); test: AUC; sedimentation velocity, Toll5A with Spz1C at equimolar concentration or in excess; 50,000 rpm, 20 °C
[4] = molecular target: T1, Aedes aegypti Spaetzle1C cystine-knot …; test: SPR; heterogeneous ligand fit, site 1
[5] = molecular target: Aedes aegypti Spaetzle1C cystine-knot domain (residues 219-320), disulphide-linked dimer (Aedes aegypti); test: SPR; Biacore T200, CM5 chip; Spz1A, Spz1C and DmSpz proproteins and cys-knot ligands immobilised by amine coupling at pH 4.5; Toll ectodomains injected at 0.1-7.5 μM; 100 mM NaCl, 20 mM HEPES pH 7; 30 μl/min; two-state reaction model
[6] = molecular target: T1, Aedes aegypti Spaetzle1C cystine-knot …; test: SPR; heterogeneous ligand fit, second site
[7] = molecular target: Aedes aegypti Spaetzle1C cystine-knot domain (residues 219-320), disulphide-linked dimer (Aedes aegypti); test: mass photometry; 25 nM Toll5A with 25 nM Spz1C; PBS pH 7.4; Refeyn OneMP
[8] = molecular target: Aedes aegypti Toll5A ectodomain (residues 1-789) (Aedes aegypti); test: AUC; sedimentation velocity, Toll5A ectodomain alone at ≥ 30 μM; 50,000 rpm, 20 °C; dimer to monomers
[9] = molecular target: Aedes aegypti Spaetzle1C cystine-knot domain (residues 219-320), disulphide-linked dimer (Aedes aegypti); test: mass photometry; 50 nM Toll5A with 50 nM Spz1C; PBS pH 7.4; Refeyn OneMP
[10] = molecular target: T2, Drosophila melanogaster Toll (Toll1) …; test: SPR; Biacore T200, CM5 chip; Spz1A, Spz1C and DmSpz proproteins and cys-knot ligands immobilised by amine coupling at pH 4.5; Toll ectodomains injected at 0.1-7.5 μM; 100 mM NaCl, 20 mM HEPES pH 7; 30 μl/min; two-state reaction model; conditions: both partners purified

Row | stoichiometry N (Toll5A per Spz1C dimer) [1] | stoichiometry N [2] | stoichiometry N (Toll5A per Spz1C dimer) [3] | koff [4] [s⁻¹] | Kd [5] [nM] | koff [6] [s⁻¹] | stoichiometry N (Toll5A per Spz1C dimer) [7] | stoichiometry N [8] | stoichiometry N (Toll5A per Spz1C dimer (1:1 complex)) [9] | stoichiometry N (Toll5A per Spz1C dimer (2:1 complex)) [9] | stoichiometry N (Toll5A per Spz1C dimer (2:2 complex)) [9] | Kd [10] [nM] | Binder
1 | 2 | 2 | 1 and 2 | 0.0324 | 2000 | 0.00532 | 2 | 2 | 1 | 2 | 1 | – | Aedes aegypti Toll5A ectodomain (residues 1-789) (receptor, Asn-linked glycans visible at positions 151, 194, 481, 521, 634 and 687) TSTKRFTCPEESEASNCSCEEFPSKTHFYCPDFNPTLYVDVEDRMRVDFKCYDEPHDFKSLPNLAIGSVKLLTVVDCVLDDDRPILESFKFLEVADVRSFVYNNHENGIRYNAKYFEGMEQLENLTLARGVVSIDRDTFSGFLNLKRLTIEHNKLNLQPGTFEALSNLTYLGLVYNGLNEIQPGLFDGLESLEALSLSYNDIKSLSAGSFNGLSSLRMLNLRVNKIESFDANTFASLKELSRLEITLNPFVSLPRGLFSENKKLKTLILTNNRKLVTLPEELLANLKELTVVNLSHNGVGNLPESLLSGSSGIIELNLGYNRLNSLPEELLSDQPQLQVLNLDHNQLESIPDYFLERNVELQTLYLSHNRLRSLSEKAFTKLKNLKELHLENNQLQTIPQFLFSGTPKLEEIYMQNNQLALHANSFINEELSIADNDNTPFQVLQKLRILHLRNNSISTIFQDWYINNLEMQSLDLSFNKLPGLSYTQLQFQSNITLNLSNNEISQVLLIDDLDLQPYQRINVDLNHNPLNCNCNALKFIQLIQSKAEHGLQFNVDQLRCSEPPNLLDATMDQLQTKDLLCDFESADDCPKDCQCAMRLLDHTVIVNCSGRGLTEFPDLPIPSQLHEDFNALEVHVENNRLTKLPNLTKHNEITQLYARNNSIQNLLPHNIPSKLRIIDLSQNLLKMIDDSTLAQINRSSHLETIRLSQNQWLCDCPASSFLIFVQQNSRLISDMSAIRCHPSGKSLDSITVNELCFEDYTTENLYFQ
2 | – | – | – | – | – | – | – | – | – | – | – | 30 to 80 | Drosophila melanogaster Spaetzle (Spz1) (ligand, disulfide-linked dimer of the processed cys-knot form (C-106; limits from the UniProt chain feature, not given); the proprotein (26-326) was also immobilised) VGGSDERFLCRSIRKLVYPKKGLRADDTWQLIVNNDEYKQAIQIEECEGADQPCDFAANFPQSYNPICKQHYTQQTLASIKSDGELDVVQNSFKIPSCCKCALKTG
